This passage reports stoichiometry N results from doi:10.1101/2024.10.25.620210.

The test addresses α subunit of the Sinapis alba plastid-encoded RNA polymerase (SaPEP) (Sinapis alba) (UniProt Q9XQN8). Kind of test: cryo-EM structure.

In general, stoichiometry N refers to the number of molecules, sites or subunits per partner or assembly. “α subunit of the Sinapis alba plastid-encoded RNA polymerase (SaPEP) (from UniProt Q9XQN8 1-327) (natural protein)” came in with a stoichiometry N of 2.
